Here are results for five proteins from PMC2597415.

Numbering of substitutions follows the chain as printed.

Substrate in data set [1]: O=C(CO)[C@H](O)[C@H](O)COP(=O)(O)O
The data set can be described thus: coupled-enzyme spectrophotometric assay of RPE activity. The data set is classed as biochemical, Streptococcus pyogenes. The settings on record: Co2+ enzyme.

Substrate in data set [2]: O=C(CO)[C@H](O)[C@H](O)COP(=O)(O)O
The data set is described as above. It counts as biochemical, Escherichia coli. The conditions noted are these: Co2+ enzyme.

B1: RPE (D-ribulose 5-phosphate 3-epimerase) (Streptococcus pyogenes serotype M1) (protein)
chain: MSTLKIAPSILAADYANFASELARIEETDAEYVHIDIMDGQFVPNISFGADVVASMRKHSKLVFDCHLMVVDPERYVEAFAQAGADIMTIHTESTRHIHGALQKIKAAGMKAGVVINPGTPATALEPLLDLVDQVLIMTVNPGFGGQAFIPECLEKVATVAKWRDEKGLSFDIEVDGGVDNKTIRACYEAGANVFVAGSYLFKASDLVSQVQTLRTALNV
For B1, in data set [1], the Km is 1200 ± 100 µM, the kcat was 3800 ± 160 s⁻¹ and the kcat/Km came out at 3.2e+06 M⁻¹ s⁻¹.

B2: ALSE (D-allulose 6-phosphate 3-epimerase) (Escherichia coli K-12) (protein)
chain: MKISPSLMCMDLLKFKEQIEFIDSHADYFHIDIMDGHFVPNLTLSPFFVSQVKKLATKPLDCHLMVTRPQDYIAQLARAGADFITLHPETINGQAFRLIDEIRRHDMKVGLILNPETPVEAMKYYIHKADKITVMTVDPGFAGQPFIPEMLDKLAELKAWREREGLEYEIEVDGSCNQATYEKLMAAGADVFIVGTSGLFNHAENIDEAWRIMTAQILAAKSEVQPHAKTA
As to B2, in data set [2], the Km turned out to be 3000 ± 300 µM, the kcat came out at 2 ± 0.8 s⁻¹ and the kcat/Km came out at 670 M⁻¹ s⁻¹.

B3: ALSE (D-allulose 6-phosphate 3-epimerase) (Escherichia coli K-12; DEL196-196) (protein)
chain: MKISPSLMCMDLLKFKEQIEFIDSHADYFHIDIMDGHFVPNLTLSPFFVSQVKKLATKPLDCHLMVTRPQDYIAQLARAGADFITLHPETINGQAFRLIDEIRRHDMKVGLILNPETPVEAMKYYIHKADKITVMTVDPGFAGQPFIPEMLDKLAELKAWREREGLEYEIEVDGSCNQATYEKLMAAGADVFIVGSGLFNHAENIDEAWRIMTAQILAAKSEVQPHAKTA
Consider B3, for which, in data set [2], the Km was 3900 ± 500 µM, the kcat came out at 130 ± 7 s⁻¹ and the kcat/Km stood at 33000 M⁻¹ s⁻¹.

B4: ALSE (D-allulose 6-phosphate 3-epimerase) (Escherichia coli K-12; DEL198-198) (protein)
chain: B3 chain with S196T, G197S
Take B4: in data set [2], the Km amounted to 5100 ± 500 µM, the kcat was 440 ± 20 s⁻¹ and the kcat/Km was found to be 86000 M⁻¹ s⁻¹.

B5: ALSE (D-allulose 6-phosphate 3-epimerase) (Escherichia coli K-12; DEL197-197) (protein)
chain: B3 chain with S196T
On to B5, for which, in data set [2], the Km was determined as 2800 ± 600 µM, the kcat is 240 ± 14 s⁻¹ and the kcat/Km was found to be 85000 M⁻¹ s⁻¹.

For orientation: Km means the substrate concentration at which the rate is half of its maximum. For orientation: kcat means the maximal rate divided by the concentration of active sites. In general, kcat/Km refers to the second-order rate constant that governs catalysis at low substrate concentration.
